In the first test the target is FcγRIIIa/CD16a 158V, His-tagged (human). Description: BLI. (In BLI a coated tip is dipped into the sample, and binding shifts an interference pattern.)
FcγRIIIa/CD16a 158V, His-tagged (human), sequence (P08637 17-208): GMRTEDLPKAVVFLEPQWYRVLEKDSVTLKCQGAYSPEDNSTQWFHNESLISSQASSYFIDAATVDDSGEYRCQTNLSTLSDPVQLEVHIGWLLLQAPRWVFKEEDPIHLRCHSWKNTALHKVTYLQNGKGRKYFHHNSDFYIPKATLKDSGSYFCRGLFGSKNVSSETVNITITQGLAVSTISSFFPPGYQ
Regarding “denosumab (as such; mean over the products) (antibody)”, the Kd worked out at 15000 nM.

Another test deals with human neonatal Fc receptor (FcRn), His-tagged (human) (UniProt P55899). Description: BLI.
UniProt P55899, sequence (P55899 24-297, chain 1 of 2): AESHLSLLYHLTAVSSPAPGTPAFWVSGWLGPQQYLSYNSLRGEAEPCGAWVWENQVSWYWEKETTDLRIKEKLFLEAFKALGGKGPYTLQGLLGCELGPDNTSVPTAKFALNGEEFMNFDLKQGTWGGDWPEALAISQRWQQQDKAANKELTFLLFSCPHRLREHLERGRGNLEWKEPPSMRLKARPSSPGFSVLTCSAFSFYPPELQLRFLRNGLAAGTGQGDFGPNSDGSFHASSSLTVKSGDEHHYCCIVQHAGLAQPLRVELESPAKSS
UniProt P55899, sequence (P61769 21-119, chain 2 of 2, further chain): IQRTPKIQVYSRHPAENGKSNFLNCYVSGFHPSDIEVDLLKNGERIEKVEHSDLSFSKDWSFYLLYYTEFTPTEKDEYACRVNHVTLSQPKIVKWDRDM
Regarding “EU Prolia^® (denosumab reference drug product, EU-licensed) (antibody)”, the Kd lay within 17.7 to 38.5 nM.

As to “US Prolia^® (denosumab reference drug product, US-licensed) (antibody)”, the Kd was in the range of 19.7 to 29.2 nM.

Consider “RGB-14-P (Gedeon Richter's proposed denosumab biosimilar to Prolia^®) (antibody)”, for which the Kd lay in the range of 17.2 to 30.1 nM.

In turn, “RGB-14-X (Gedeon Richter's proposed denosumab biosimilar to Xgeva^®) (antibody)” gave a Kd of 21.6 to 27.2 nM.

“US Xgeva^® (denosumab reference drug product, US-licensed) (antibody)” had a Kd of 18.1 to 33.5 nM.

As for “EU Xgeva^® (denosumab reference drug product, EU-licensed) (antibody)”, the Kd lay in the range of 14.7 to 36.2 nM.

A word on the Kd: it is the constant that tells how readily two partners part at equilibrium. A high value points to lower affinity.

These data come from PMC12354141.
